From patent publication US20250297004A1, “NECTIN-4 BINDING AGENTS” (INNATE PHARMA, priority 2022, published 2025) come the findings set out here.

Test [1] has as its target T1, human Nectin-4 Mutant 1 (human, UniProt Q96NY8 32-510).
T1 construct: Expressed on transfected HEK293T cells; also called S58P/G59D/Q61A/N106D/P107A
T1 chain: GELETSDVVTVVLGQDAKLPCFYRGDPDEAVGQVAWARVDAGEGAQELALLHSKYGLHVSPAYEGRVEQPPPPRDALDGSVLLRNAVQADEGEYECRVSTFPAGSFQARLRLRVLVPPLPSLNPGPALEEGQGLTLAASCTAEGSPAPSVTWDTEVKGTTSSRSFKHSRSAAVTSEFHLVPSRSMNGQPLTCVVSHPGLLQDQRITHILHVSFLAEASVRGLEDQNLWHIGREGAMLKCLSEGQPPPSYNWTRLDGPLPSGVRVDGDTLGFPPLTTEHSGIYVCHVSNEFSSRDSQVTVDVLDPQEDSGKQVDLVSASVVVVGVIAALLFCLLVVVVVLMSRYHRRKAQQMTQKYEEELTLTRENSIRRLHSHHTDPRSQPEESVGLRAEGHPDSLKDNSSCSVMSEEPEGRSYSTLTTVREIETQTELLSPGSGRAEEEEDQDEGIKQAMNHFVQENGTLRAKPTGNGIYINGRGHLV
The test is described as follows: binding to HEK293T cells expressing Nectin-4 mutant.

In test [2] the target is T2, human Nectin-4 expressed on cells (human, UniProt Q96NY8 32-510).
T2 sequence: T1 chain with P27S, D28G, A30Q, D75N, A76P
The test is described as follows: cell-based or functional assay.

Test [3] relates to cynomolgus Nectin-4 protein expressed on CHO cells. The test is described as follows: Species cross-reactivity by flow cytometry on CHO cell lines. Format: binding. The note with it: FIG. 6B. The protocol:
(§1) Anti-Nectin-4 antibodies were tested by flow cytometry for binding to different CHO cell lines made to express respectively the mouse, cynomolgus and rat Nectin-4 protein (including an N-terminal V5 tag not shown in the sequences below).
(§2) The mature amino acid sequence of the proteins expressed by the cells were as follows: […]

The target of test [4] is T3, mouse Nectin-4 protein expressed on CHO cells (Mus musculus, UniProt Q8R007).
T3 construct: V5 (N); expressed in transfected cells; host or cells: CHO
T3 sequence (Q8R007 32-508): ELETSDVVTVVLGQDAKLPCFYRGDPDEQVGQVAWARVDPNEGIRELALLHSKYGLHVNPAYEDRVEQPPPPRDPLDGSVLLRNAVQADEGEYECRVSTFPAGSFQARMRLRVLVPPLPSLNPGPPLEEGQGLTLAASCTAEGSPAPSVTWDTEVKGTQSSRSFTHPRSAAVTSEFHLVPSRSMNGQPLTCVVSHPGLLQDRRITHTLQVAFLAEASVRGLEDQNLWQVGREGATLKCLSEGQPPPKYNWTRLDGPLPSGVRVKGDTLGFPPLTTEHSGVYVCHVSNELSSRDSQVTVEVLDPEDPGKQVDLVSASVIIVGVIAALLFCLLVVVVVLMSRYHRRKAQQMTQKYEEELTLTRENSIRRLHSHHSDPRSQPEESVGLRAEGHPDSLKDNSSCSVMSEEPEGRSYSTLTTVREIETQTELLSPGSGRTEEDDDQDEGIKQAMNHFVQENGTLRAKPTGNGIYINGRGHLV
The test is described as above. Format: binding. The protocol:
as §1, §2

Test [5] deals with rat Nectin-4 protein expressed on CHO cells. The test is described as above. Type of test: binding. The note with it: FIG. 6A. The protocol:
as §1, §2

In test [6] the target is T4, human Nectin-4 Mutant 7 (human, UniProt Q96NY8 32-510).
T4 construct: Expressed on transfected HEK293T cells; also called S195A/K197T/S199A
T4 chain: T1 chain with P27S, D28G, A30Q, D75N, A76P, S164A, K166T, S168A
The test is described as follows: binding to HEK293T cells expressing Nectin-4 mutant.

Test [7] concerns the target T5, human Nectin-4 Mutant 7bis (human, UniProt Q96NY8 32-510).
T5 construct: Expressed on transfected HEK293T cells; also called A72P/G73N/K197T/S199A
T5 chain: T1 chain with P27S, D28G, A30Q, A41P, G42N, D75N, A76P, K166T, S168A
Described as above.

Changes are numbered by the printed parent chain.

rat Nectin-4 protein expressed on CHO cells, sequence (as listed by the source): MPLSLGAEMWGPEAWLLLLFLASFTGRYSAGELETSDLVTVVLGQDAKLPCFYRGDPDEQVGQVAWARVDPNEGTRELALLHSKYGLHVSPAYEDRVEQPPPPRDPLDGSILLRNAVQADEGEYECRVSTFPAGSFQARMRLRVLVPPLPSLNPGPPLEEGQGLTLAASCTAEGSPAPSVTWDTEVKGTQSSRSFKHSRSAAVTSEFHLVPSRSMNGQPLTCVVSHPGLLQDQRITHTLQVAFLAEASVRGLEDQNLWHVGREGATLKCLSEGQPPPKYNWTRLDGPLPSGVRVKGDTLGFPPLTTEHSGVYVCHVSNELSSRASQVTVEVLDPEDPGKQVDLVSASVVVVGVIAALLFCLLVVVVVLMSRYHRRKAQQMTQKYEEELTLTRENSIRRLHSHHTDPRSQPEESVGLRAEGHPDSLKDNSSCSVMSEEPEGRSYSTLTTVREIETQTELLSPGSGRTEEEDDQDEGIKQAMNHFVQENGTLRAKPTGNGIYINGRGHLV
cynomolgus Nectin-4 protein expressed on CHO cells, sequence (as listed by the source): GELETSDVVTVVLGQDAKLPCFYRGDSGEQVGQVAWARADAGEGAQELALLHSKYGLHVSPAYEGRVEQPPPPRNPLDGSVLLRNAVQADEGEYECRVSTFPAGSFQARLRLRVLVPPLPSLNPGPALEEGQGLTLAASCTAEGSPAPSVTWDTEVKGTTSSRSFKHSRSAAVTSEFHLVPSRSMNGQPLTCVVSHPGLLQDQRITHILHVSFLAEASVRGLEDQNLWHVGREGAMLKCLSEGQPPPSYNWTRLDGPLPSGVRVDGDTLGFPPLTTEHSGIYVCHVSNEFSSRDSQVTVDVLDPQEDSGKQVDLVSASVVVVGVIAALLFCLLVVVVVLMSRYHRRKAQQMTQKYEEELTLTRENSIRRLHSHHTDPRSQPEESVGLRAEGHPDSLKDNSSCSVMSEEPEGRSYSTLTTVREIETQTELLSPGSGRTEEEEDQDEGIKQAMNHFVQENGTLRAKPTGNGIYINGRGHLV

B1: chimeric parental 5E7 antibody (antibody, V domains shown)
VH: QVQLQQPGAELVKPGASVKLSCKASGYIFTSYWMHWVKQRPGQGLEWIGEIDPSDSYTNYNQKFKGKATLTLDKSSSTTYMQLSSLTSEDSAVYYCVRGYGNYGDYWGQGTTLTVSS
VL: DVVMTQAAFSNPVTLGTSASISCRSSKSLLHSNGITYLYWYLQKPGQSPQLLIYQMSNLASGVPDRFSSSGSGTDFTLRISRVEAEDVGVYYCAQNLELPWTFGGGTKLEIKR
notes: Chimeric antibody, murine variable domains with human constant regions; also called ch5E7; CHG1-M-1N4-5E7
Regarding B1, in test [1], the binding result was “binds”. Further, in test [2], the “internalization efficiency on SUM190, normalized to chimeric parental antibody (Fab-ZAP, CTG), experiment 1” value was 100 % of chimeric parental and the “internalization efficiency on SUM190, normalized to chimeric parental antibody (Fab-ZAP, CTG), experiment 2” value is 100 % of chimeric parental.

B2: 5E7 (antibody, V domains shown)
VH: QVQLQQPGAELVKPGASVKLSCKASGYIFTSYWMHWVKQRPGQGLEWIGEIDPSDSYTNYNQKFKGKATLTLDKSSSTTYMQLSSLTSEDSAVYYCVRGYGNYGDYWGQGTTLTVSSASTKGP
VL: DVVMTQAAFSNPVTLGTSASISCRSSKSLLHSNGITYLYWYLQKPGQSPQLLIYQMSNLASGVPDRFSSSGSGTDFTLRISRVEAEDVGVYYCAQNLELPWTFGGGTKLEIKRTVAAP
As to B2, in test [3], the “binding to cynomolgus Nectin 4 protein” value is listed as “bound”. The “binding to mouse Nectin 4 protein” value in test [4] was “lack binding”. The “binding to rat Nectin 4 protein” value in test [5] is recorded as “bound”.

B3: N41 (antibody, V domains shown)
VH: QVQLKQSGPGLVQPSQSLSITCTVSGFSLTNYGVHWVRQSPGKGLEWLGVIWSGGSTDYNAAFISRLSISKDTSKSQVFFKMNSLQADDTAIYYCARELIHAMDNWGQGTSVTVSS
VL: DIQMTQSPASLSVSVGETVTITCRASENIYSNLAWYQQKQGNSPQLLVFAATNLADGVPSRFSGSGSGTQYSLKINSLQSEDFGTYYCQHFWGTPTFGGGTKLEIK
For B3, the binding result in test [6] and in test [7] was “binds” throughout.
